In article doi:10.64898/2025.12.17.694860, “Structural basis for the inhibition of Trypanosoma brucei enolase by a camelid single-domain antibody” (bioRxiv, 2025):

Tests used:
[1] = target: T1, Trypanosoma brucei enolase (Trypanosoma brucei (sequence identical …)); assay: ITC; conditions: both partners purified
T1 construct: Enolase (phosphopyruvate hydratase) of Trypanosoma brucei; printed MM = 48.4 kDa; Homodimer by analytical SEC and in the crystal; also called TbrENO; T. brucei enolase; source: E. coli, purified (IMAC, SEC); not shown: His tag, N-terminal, kept

[2] = target: T1, Trypanosoma brucei enolase; assay: SEC; conditions: both partners purified

B1: sdAbR1-10 (VHH)
VHH: QVQLQESGGGLVQPGGSLRLSCAAPGSIFSIFSGNIMGWYRQAPGKQRDFVASISSGGATNYADSVKGRFTISRDNAKNTVYLQMNNLKPEDTAVYYCNTVGGVHTNSWGQGTQVTVSS
For B1, the Kd [1] was roughly 20 nM, the “stoichiometry N” value [1] was ~1 sdAbR1-10 per TbrENO monomer and the “stoichiometry N” value [2] was 2 sdAbR1-10 per TbrENO dimer.
